Source: PMC4728125, “Molecular basis for allosteric specificity regulation in class Ia ribonucleotide reductase from Escherichia coli” (eLife, 2016)

B1: Escherichia coli class Ia ribonucleotide reductase catalytic subunit α2 (enzyme, E. coli, UniProt P00452 1-761, looked up)
chain: MNQNLLVTKRDGSTERINLDKIHRVLDWAAEGLHNVSISQVELRSHIQFYDGIKTSDIHETIIKAAADLISRDAPDYQYLAARLAIFHLRKKAYGQFEPPALYDHVVKMVEMGKYDNHLLEDYTEEEFKQMDTFIDHDRDMTFSYAAVKQLEGKYLVQNRVTGEIYESAQFLYILVAACLFSNYPRETRLQYVKRFYDAVSTFKISLPTPIMSGVRTPTRQFSSCVLIECGDSLDSINATSSAIVKYVSQRAGIGINAGRIRALGSPIRGGEAFHTGCIPFYKHFQTAVKSCSQGGVRGGAATLFYPMWHLEVESLLVLKNNRGVEGNRVRHMDYGVQINKLMYTRLLKGEDITLFSPSDVPGLYDAFFADQEEFERLYTKYEKDDSIRKQRVKAVELFSLMMQERASTGRIYIQNVDHCNTHSPFDPAIAPVRQSNLCLEIALPTKPLNDVNDENGEIALCTLSAFNLGAINNLDELEELAILAVRALDALLDYQDYPIPAAKRGAMGRRTLGIGVINFAYYLAKHGKRYSDGSANNLTHKTFEAIQYYLLKASNELAKEQGACPWFNETTYAKGILPIDTYKKDLDTIANEPLHYDWEALRESIKTHGLRNSTLSALMPSETSSQISNATNGIEPPRGYVSIKASKDGILRQVVPDYEHLHDAYELLWEMPGNDGYLQLVGIMQKFIDQSISANTNYDPSRFPSGKVPMQQLLKDLLTAYKFGVKTLYYQNTRDGAEDAQDDLVPSIQDDGCESGACKI
notes: Ribonucleotide reductase class Ia α subunit (NrdA, protein R1), E. coli; residues about 4-737 modelled; 172-kDa homodimer; no tag is named for this preparation; The His6-tagged α2 was used only in the activity assays; also called α subunit; RNR α; source: prepared as described (Salowe et al., 1987; Salowe and Stubbe, 1986), purified

Assays:
[1] = target: ribonucleotide reductase β2 (Escherichia coli) (UniProt P69924); settings: cited from earlier work
Chain of ribonucleotide reductase β2 (Escherichia coli) (P69924 2-376): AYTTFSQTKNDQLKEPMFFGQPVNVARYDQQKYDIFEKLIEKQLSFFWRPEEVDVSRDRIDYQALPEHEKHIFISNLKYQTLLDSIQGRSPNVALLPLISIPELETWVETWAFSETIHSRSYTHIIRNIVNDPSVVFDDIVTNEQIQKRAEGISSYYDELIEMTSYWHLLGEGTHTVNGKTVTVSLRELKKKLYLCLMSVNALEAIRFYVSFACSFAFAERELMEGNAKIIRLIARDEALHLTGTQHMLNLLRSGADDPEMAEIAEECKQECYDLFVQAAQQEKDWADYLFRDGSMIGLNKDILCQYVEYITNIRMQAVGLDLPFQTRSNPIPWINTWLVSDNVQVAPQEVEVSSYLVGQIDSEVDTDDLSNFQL

[2] = target: the molecule itself; assay: crystal structure; α4β4 crystal form; 25 μM α2 and 50 μM met-β2 in 50 mM HEPES, 15 mM MgCl2, 1 mM EDTA, pH 7.6, with 10 mM dATP and 5 mM DTT; hanging drop, ~25°C; crystals soaked with CDP/dATP, UDP/dATP, ADP/dGTP or GDP/TTP; four structures at 2.97-3.40 Å

Molecule	Kd [1] [nM]	binding result [2]
ribonucleotide reductase α2 (from UniProt P00452)	400	–
B1	–	binds
